Article PMC10824102 (2024)

Tests used:
[1] = molecular target: T1, full-length 6x-His-tagged human G3BP1 (human, UniProt Q13283 1-466); test: SPR
[2] = molecular target: T1, full-length 6x-His-tagged human G3BP1; test: FRET; competition with FAM-labeled USP10 FGDF peptide probe

T1 sequence (Q13283 whole entry): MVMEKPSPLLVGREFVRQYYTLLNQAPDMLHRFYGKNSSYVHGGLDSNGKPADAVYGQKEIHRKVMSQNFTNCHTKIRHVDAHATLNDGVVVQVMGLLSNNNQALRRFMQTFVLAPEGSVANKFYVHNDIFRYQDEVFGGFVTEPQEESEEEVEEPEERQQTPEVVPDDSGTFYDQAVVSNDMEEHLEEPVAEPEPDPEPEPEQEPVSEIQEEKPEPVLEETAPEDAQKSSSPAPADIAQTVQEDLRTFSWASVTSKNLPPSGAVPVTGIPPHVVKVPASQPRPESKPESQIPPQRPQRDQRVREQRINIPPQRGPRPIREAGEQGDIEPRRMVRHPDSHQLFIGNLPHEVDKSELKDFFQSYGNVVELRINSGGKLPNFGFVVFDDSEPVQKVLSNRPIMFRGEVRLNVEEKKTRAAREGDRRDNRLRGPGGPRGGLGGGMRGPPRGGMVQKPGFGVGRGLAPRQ

Work on LTFGDFDEHEVDALASGITFGDFDD [nsP3 25-mer peptide] yielded a Kd [1] of 0.2 µM and an IC50 [2] of 3.1 µM.
